Measured values: patent publication US20160200782A1
One block for each binder: values may come before it.

Tests used:
Assay in all cases: cell-based or functional assay
PKG1α(h) (human), Q13976 = target: PKG1α(h) (human), Q13976
[1] = target: CaMKIδ(h) (human), Q8IU85
CK1δ(h) (human), P48730 = target: CK1δ(h) (human), P48730
[2] = target: JNK2α2(h) (human), P45984
PKCβI(h) (human), P05771 = target: PKCβI(h) (human), P05771
[3] = target: CaMKIIδ(h) (human), Q13557
MKK7β(h) (human), O14733 = target: MKK7β(h) (human), O14733
Chain of MKK7β(h) (human), O14733 (O14733 whole entry): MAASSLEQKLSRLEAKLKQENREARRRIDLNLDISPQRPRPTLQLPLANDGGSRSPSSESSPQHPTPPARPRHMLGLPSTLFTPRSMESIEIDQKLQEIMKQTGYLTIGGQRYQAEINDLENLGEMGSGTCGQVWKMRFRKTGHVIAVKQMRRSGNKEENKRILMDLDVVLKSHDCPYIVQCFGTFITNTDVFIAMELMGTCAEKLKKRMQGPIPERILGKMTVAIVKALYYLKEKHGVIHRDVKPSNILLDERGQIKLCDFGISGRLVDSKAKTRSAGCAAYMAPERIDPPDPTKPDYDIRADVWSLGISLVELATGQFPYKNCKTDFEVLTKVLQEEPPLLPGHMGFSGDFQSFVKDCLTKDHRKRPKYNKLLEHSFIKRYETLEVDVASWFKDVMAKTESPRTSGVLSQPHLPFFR

Chain of CK1δ(h) (human), P48730 (P48730 1-294, stated change not applied): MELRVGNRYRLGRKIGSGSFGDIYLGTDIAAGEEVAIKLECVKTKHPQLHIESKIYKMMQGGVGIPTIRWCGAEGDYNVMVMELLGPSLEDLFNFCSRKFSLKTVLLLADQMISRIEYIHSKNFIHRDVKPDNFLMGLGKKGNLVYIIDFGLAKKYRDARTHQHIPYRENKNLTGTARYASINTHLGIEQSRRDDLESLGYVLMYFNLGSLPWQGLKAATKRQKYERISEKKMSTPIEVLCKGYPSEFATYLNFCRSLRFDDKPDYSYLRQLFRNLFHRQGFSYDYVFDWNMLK
Chain of PKG1α(h) (human), Q13976 (Q13976 whole entry): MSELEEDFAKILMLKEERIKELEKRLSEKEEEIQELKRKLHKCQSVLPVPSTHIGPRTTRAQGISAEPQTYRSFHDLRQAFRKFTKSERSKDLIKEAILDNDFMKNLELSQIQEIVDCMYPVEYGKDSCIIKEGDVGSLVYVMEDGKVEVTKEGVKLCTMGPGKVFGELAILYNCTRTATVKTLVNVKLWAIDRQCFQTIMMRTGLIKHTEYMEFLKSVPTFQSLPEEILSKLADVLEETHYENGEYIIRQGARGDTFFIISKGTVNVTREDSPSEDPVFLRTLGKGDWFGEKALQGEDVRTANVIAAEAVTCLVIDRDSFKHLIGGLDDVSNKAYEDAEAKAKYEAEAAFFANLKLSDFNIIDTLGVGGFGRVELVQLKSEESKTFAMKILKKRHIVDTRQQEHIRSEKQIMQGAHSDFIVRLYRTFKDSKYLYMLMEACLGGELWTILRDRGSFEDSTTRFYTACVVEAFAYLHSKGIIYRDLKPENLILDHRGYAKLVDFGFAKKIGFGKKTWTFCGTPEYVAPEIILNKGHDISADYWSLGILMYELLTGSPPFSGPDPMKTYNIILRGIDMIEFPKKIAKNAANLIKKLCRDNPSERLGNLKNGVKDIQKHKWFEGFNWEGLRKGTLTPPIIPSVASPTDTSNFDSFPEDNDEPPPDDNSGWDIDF
Chain of PKCβI(h) (human), P05771 (P05771 whole entry): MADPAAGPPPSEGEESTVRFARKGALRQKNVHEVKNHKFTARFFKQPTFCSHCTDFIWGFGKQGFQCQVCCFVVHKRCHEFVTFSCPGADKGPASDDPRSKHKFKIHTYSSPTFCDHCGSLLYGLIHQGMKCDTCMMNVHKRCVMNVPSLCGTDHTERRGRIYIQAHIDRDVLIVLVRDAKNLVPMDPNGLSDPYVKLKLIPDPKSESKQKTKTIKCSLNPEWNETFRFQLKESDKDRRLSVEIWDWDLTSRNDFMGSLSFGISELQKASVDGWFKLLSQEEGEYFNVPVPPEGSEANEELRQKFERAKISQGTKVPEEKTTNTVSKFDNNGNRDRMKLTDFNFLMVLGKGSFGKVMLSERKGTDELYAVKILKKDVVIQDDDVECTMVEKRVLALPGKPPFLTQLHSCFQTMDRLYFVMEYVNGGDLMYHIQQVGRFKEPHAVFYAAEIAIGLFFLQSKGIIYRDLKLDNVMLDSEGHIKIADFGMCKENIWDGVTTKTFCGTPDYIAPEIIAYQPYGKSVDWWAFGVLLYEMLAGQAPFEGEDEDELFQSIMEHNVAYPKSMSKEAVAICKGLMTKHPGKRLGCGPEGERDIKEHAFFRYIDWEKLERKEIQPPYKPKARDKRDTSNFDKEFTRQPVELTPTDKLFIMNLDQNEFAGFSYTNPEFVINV
Chain of CaMKIIδ(h) (human), Q13557 (Q13557 whole entry, stated change not applied): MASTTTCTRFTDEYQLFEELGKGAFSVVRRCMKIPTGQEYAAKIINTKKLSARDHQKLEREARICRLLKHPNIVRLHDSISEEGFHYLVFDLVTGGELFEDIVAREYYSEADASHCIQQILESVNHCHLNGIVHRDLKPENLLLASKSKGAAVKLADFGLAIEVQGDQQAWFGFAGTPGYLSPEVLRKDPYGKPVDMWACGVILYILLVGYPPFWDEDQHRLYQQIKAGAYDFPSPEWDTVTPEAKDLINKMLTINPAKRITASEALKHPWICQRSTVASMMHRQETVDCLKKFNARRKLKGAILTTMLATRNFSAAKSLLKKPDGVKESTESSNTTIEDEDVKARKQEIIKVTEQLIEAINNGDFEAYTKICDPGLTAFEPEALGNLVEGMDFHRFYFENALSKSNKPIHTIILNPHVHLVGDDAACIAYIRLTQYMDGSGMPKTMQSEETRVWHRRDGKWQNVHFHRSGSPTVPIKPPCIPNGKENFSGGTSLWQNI
Chain of CaMKIδ(h) (human), Q8IU85 (Q8IU85 whole entry, stated change not applied): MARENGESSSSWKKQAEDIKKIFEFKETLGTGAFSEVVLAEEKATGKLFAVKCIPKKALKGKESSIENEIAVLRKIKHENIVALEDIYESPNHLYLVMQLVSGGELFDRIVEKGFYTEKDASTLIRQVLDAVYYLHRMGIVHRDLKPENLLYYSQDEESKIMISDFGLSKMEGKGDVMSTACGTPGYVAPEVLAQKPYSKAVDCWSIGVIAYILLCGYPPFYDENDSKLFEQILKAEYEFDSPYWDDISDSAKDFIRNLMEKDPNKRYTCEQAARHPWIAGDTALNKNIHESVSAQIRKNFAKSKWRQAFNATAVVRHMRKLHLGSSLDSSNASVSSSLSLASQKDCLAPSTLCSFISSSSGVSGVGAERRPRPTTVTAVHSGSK

- % activity (PKG1α(h) (human), Q13976): 58%
- % activity [1]: 17%
- % activity (CK1δ(h) (human), P48730): 93%
- % activity [2]: 96%
- % activity (PKCβI(h) (human), P05771): 78%
- % activity [3]: 2%
- % activity (MKK7β(h) (human), O14733): 94%
B1: MMI-0400 (peptide)
peptide: KAFAKLAARLYRKALARQLGVAA

- % activity (PKG1α(h) (human), Q13976): 64%
- % activity [1]: 10%
- % activity (CK1δ(h) (human), P48730): 92%
- % activity [2]: 98%
- % activity (PKCβI(h) (human), P05771): 78%
- % activity [3]: 1%
- % activity (MKK7β(h) (human), O14733): 100%
B2: MMI-0300 (peptide)
peptide: FAKLAARLYRKALARQLGVAA
